In the DeepSol protein solubility set:

test: soluble on expression in E. coli; label from the status in PepcDB or PDB records

Soluble on expression in E. coli, soluble:
MTQTYNADAIEVLTGLEPVRRRPGMYTDTTRPNHLGQEVIDNSVDEALAGHAKRVDVILHADQSLEVIDDGRGMPVDIHPEEGVPAVELILCISVVNALSKRVEVNVRRDGQVYNIAFENGEKVQDLQVVGTCGKRNTGTSVHFWPDETFFDSPRFSVSRLTHVLKAKAVLCPGVEITFKDEINNTEQRWCYQD
MSLYSDQLVCPAHVPRGSPEGRVDAIAAMVTTRTAVQAPVERRTALFVNGQAWLTAQTTPHDLADWAVGRLCGEGLIAGPEEIAHLAVDEAGPCVHAVLPRVRTPAPPAPVAPGPRVAEAQLLRWMQEMLAQAPLYRATGGMHVAMAVRADSGEQIVREDIGRHQAVDKVLGAARLAGWPPAQVVVLTSGRISAEMCARVARFGAPVCASRTAATDEAWALATRLGMDLVGYVRTAASLIVYTTGNRVARRIEPEGHHHHHH
GPGSMMRCGNGSGPAAPSAASPRSHEGCLPHWMECSSASSSFVEDRVRCLVHPVGVTSLLPAPLQRILANVLRILQQERAQLKGQRPCRRHSRSLGTGVDAEVTECIVDAAQAPSLAAAADIFSAFVAAHPMDGLALLSSPVALVGAALAEVVTLGQVESCVIPMPELLSFLDAAISVGHPGAMHSVAICLREGTAGLQRDVTSSETWLRCAASSGYLPAMHELGETYERGAPASSKLPAGAAEDAADWGEAMQWYRRAAEAGYPPSQLNLGKLLLAASEHAQSAGSAAAPQVAHLFTEAKRWLHACAATGVEEAVRLVKRIEEQGAR
MKVGGIEDRQLEALKRAALKACELSYSPYSHFRVGCSILTNNDVIFTGANVENASYSNCICAERSAMIQVLMAGHRSGWKCMVICGDSEDQCVSPCGVCRQFINEFVVKDFPIVMLNSTGSRSKVMTMGELLPMAFGPSHLN
AKSVVSHSLTTLGVEVSKPPPQHDKIEASEPSFPLHESILKVVEEEWQQIDRQLPSVACRYPVSSIEAARILSVPKVDDEILGFISEATPAAATQASSTESCDKHLDLALCRSYEAAASALQIAAHTAFVAKSLQADISQAAQIINSDPSDAQQALRILNRTYDAASYLCDAAFDEVRMSACAMGSSTMGRRYLWLKDCKISPASKNKLTVAPFKGGTLFGGEVHKVIKKRGNKQ

Soluble on expression in E. coli, not soluble:
MGSDKIHHHHHHMAGANNPVITIKRGLDIPIAGEPLQQIDDAPKTTQVALIGEEYVGLKPTMSVEVGDHVVKGQVLFEDKKTPGVLFTAPASGVVCAINRGERRVLQSVVIDCDATQEPAIILESVDIHALSHQAVKDGLVRSGLWTALRTRPFSRVPQLDAAPAGIFVTAIDTNPLAPDPRVIIATQPQAFQAGLFALTFLTTEKVYLCQDDGASLLADASSEYDLSKVSVQRFNGVHPAGLVGTHIHFLLPASIERQVWHVGYQDVIAFGKLFLTGELYTDRIVALGGPNVLKPRLVRTQLGAKLSEWVNGEIDQRQSRIVSGSLLSGHTAADVYDFLGRFHNQISVLTENERQELLPWVRHDSSKFSLTGIMMSGFSRTKKLFDFTTNAGGSPRAMMAFGQLARVMPLDILPILLVRDLVVRDTDEAQLLGALELDEEDLALCTFVCPGKYDFGKELRACLDIIEREG
MKIVIAPDSFKESLSADKCCQAIKAGFSTVFPDARYVCLPIADGGEGTVDAMVAATGGKRVSVDVSGPMGEKVNGFYGLTGDGKTAIIEMAAASGLMLVAPEARNPLLASSFGTGELIRHALDAGIRHIILGIGGSATVDGGMGVAQALGVRFLDAQGTPLGAGGGNLSRLASIDLQGCDPRISECRIEVACDVDNPLVGPRGAAAVFGPQKGATPEMVETLENGLRNYARVLHALTGRDMSQIPGGGAAGGMGIAAIVFLEAEMKPGIEIVMQAVKLEEAVKEASLVITGEGRIDSQTAGGKAPIGVASVAKRHHVPVIGIAGVLGDGVEVVHRHGIDAVFSILPRLAPLPEVLANGEQNLYHSACNIARVIKLGQDIGTR
WSGVMEWQEPRPEPNSRSKRWLPSHVYVNQGEILRTEQWPRKLYMQLIPQQLLTTLVPLFRNSRLVQFHFTKDLETLKSLCRIMDNGFAGCVHFSYKASCEIRVLMLLYSSEKKIFIGLIPHDQGNFVNGIRRVIANQQQVLQRNLEQEQQQRGMGG
MTDAALPPLIQQMLQPEFYPHVVEAPVQLYQTHCSYVLLTGPYAYKLKKPVYFGFLDYSTLEKRQHFLQEELRLNQRTAAPLYQQVLAISQAGDRYQFAETEPAAEYVLQMKQFPKGCLFSEQFESGQLDASVMRQLAAVVAEFHTKTWVDDHVRSYGQVAQIRKAFDENYQQTLHYIGGPQTQAQFDTTKAFSDRFFDTKADLFAARLAADKIRECHGDLHLGNLCRWDNQLFLFDCIEFNEPFRFVDTMYDIAFLVMDLDARGRQDLGTAFLNAYAEMSGDWEGLQVLPLYLSRQAYVRAKVTSFLLDDPAIDSDRRQQAFDQAAAYYQLAHAYAQPAQQGELLLLSGLSGSGKSTLGRTIAERQRAIILRSDAVRKHLAGISLLERGGPEIYSPEMSDRTYGRLLYLGLGLAQAGYRVILDAKYDRQAYRGAALTAAQAQQIPIQILHCQASEETLRQRLQARQGDIADATADLLAQQLTAWQDFSEDEQGFVRAIATEKPLTQQLDALGFLEHHHHHH
MSNIIVLSGSPRKGGNTDLLVDAFVKGAEKSNNVEVVSVAYYKVNPCIGCNSCFDRAGHECFQQDDMQIVYDKLKCADVIVVASPVYFYGVSAQLKAIIDRLHTPMRNDFKVKKLALILVGAAVLPELFDSIKIQYQLVLNFFKLEDAGMVLVRGAKDKGDVRNTDGLDEAYRLGLAME
MGSDKIHHHHHHSQERTLFPTEKTDRVPLSVFTSFKADVTTRATAQPLPEGSSIGVFLIADANYTPQSNVKYTCQPDDEWTSETSVWVGGARAGLCAYYPFGKVTFSADIQTQTTLKNQAYTEDADWWYAKDNAAVTVTNLSPEIEFLLEKPYSQLSLEMIRNGRYPLQCKITNVRIELENGESMVDTGTFDIKDGSLQNTTDVTSYSYPTSGPMHDTGLGVGEAARDTTCNYLFVPQILASGLKLTLTIDEREFSVIVPQADLGELIAGKRHVVRLDIRGGIPINIVEVTTKEWQSTSLDGGDATTIKDTTEIIIDGGKVGTEDWASDPTENGSGAL
MYRISQLAELVGLSRTTLLYYEKLGLIKGERLNNGYRQYSEKDAQRLVLLQNLQAGGLTLKECQACLDAKVNREVLVERLEQLDQEIEQKQNSRQLLAALLGESSLTDWHESLDQLAPEAHIEWLMKQGFDEKQAMRLKWLSKDMNEHERYMQDFDLIFKELERWGPGSESDTLKALQKVPNKSMTLLEIGCGQGIATELFARHTDAMITAVDNEEFALKHLMEKMQQNGLEDKITTVCADMAKMPFETKSFDLIWSEGSAYIMGVQNALKAWKPLLSEDGVLVVSDLVWSTDKPSEGALSFWKKEYPDMVSVSERIKHAQQAGYEVIEHFSLSDAAWEAYYHPLIERLDTLKDKLIDSPVLIDFENEITAFKQRANEFDYEIFILRSR
MSVPDKFFGRYQLDKSENFDEFLSSKGVNWFVRQMIKLAGLTKIISQNQEAGKYNMENLTSKKNTNYQAWELGKKFEAPGLDGNQHEITFDFKDEILSEHHIRLNEPETSAETYFYTIDDQNQLVMRMENNGIVCRRWFKRVEQK
MGSDKIHHHHHHMNLKTSIENNVHIRAVAAAADELGLETYIVGGYVRDLIMDRDNKDIDFVCLGSGIELAQKVAANMGEHVQVHIFKTFGTAMINAGDTELEFVGARKESYDFNSRKPTVESGTLEDDQLRRDFTINALAICLNKARFGELVDPFDGVSDIKRKIIKTPQDALLTFSDDPLRMIRAVRFATQLNFDIEAATFQAIATNKDRLSIVSMERISQELNKIISAPVPSYGFKLLYISGVLKDIFPEFVALHGVESIDNKSHKDNFYHTLQVLDNVAKVSDDLWLRWAAILHDIAKPLTKRFVERIGWTFHGHEDKGARMVPAIFRKLRLPLNEKMDMVAKLVRLHLRPISLVKDEVTDSAVRRLMFEAGEHFSDLMILCRADVTSKNNNKVKRYLENFDKVERKVIEVEEKDQQRNFQPVVSGEDIMKTFDIKPGKVIGDIKADLIEAILEGDVQNEYEILFPFMINLAEKKYGLVKPETH
MVLSVADAKKLTVPRLKEELASRGLDNTGNKPELLARLTESIEQAADELLGDAGITSDTHLLSDDILNDDILDAPSVGDESEADKLLGSVDGAEEHKTDKSEGEEKHEVHLIDKKIDEVTAETDKRARAIRFGLPVTAEDLGSDGAKAARAKRFDLPEDSKRLTSNDAKASRAERFGITPKTPAADDKLAARAARFGIPVGGAASASASKNAPNSEGKAAKLAARAKRFGGEIDDEEMEAKKKARMERFGTSN
